Measured values taken from paper PMC4860839, “Structures of the APC–ARM domain in complexes with discrete Amer1/WTX fragments reveal that it uses a consensus mode to recognize its binding partners” (Cell Discovery, 2015).

Molecular target: T1, APC–ARM, human APC (407–751), N-terminally His-tagged (human, UniProt P25054 407-751)
T1 construct: human APC, armadillo repeat (ARM) domain, residues 407–751; source: E. coli BL21(DE3), purified (Ni2+-NTA, Superdex200)
T1 sequence (looked up): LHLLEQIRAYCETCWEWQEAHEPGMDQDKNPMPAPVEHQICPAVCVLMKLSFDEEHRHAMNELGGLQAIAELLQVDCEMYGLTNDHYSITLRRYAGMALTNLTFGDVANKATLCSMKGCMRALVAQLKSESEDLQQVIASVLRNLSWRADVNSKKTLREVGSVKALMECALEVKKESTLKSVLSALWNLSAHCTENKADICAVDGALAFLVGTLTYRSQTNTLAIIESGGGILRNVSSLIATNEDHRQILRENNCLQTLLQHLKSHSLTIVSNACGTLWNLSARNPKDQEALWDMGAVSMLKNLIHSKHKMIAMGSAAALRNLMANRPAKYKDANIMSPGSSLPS
Assay: pull-down; competition: GST-Amer1-A2/APC–ARM complex (0.5 mg/ml, 4 ml) preloaded on the GST column at 4 °C; 0.1, 0.2, 0.5, 1 mg/ml Asef ABR-SH3 (0.5 ml) added; SDS–PAGE, Coomassie
Conditions: both partners purified

binding result: binds
B1: Asef-ABR-SH3 (residues 170–271) (domain or fragment, human, UniProt Q9NR80 170-271, looked up)
chain: SSSHHYSHPGGGGEQLAINELISDGSVVCAEALWDHVTMDDQELGFKAGDVIEVMDATNREWWWGRVADGEGWFPASFVRLRVNQDEPADDDAPLAGNSGAE
notes: Added as a protein at stated concentrations; its expression and purification are not described; also called ABR-SH3 domain of Asef
